From publication PMC5959852 (2018) come the findings set out here.

The target in this test is T1, Hif-1α CAD (Homo sapiens, UniProt Q16665).
T1 chain: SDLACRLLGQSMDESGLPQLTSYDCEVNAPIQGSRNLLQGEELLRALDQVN
As to the kind of experiment: stopped-flow.

B1: CBP TAZ1 (protein)
chain: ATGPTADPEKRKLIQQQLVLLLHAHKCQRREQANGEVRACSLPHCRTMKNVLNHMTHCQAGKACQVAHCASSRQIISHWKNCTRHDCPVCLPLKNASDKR
In turn, B1 registered a Kd of 3.4 nM.

Broadly, the Kd is the equilibrium constant for the complex coming apart. Read a high Kd as lower affinity.
